Laboratory results as given in publication PMC9207808 (ACS Chemical Biology, 2022).
“And” between values parts separate entries of the source, which are not always exact repeats. Equal entries are not always repeated. Where two headings read alike, the source gives them in different places. No end group written: not given here.

How the values were obtained:
[1] = target: Doc1-122–His6 (DocSTm toxin) (Salmonella typhimurium); assay: SPR; Biacore S200; Doc-His6 captured on a Series S NTA chip (200-400 RU); peptide as analyte, single-cycle kinetics, six concentrations (3-fold dilutions), 30 uL/min; 22 C; 10 mM HEPES, 500 mM NaCl, 50 uM EDTA, 0.005% TWEEN 20, pH 8.0; kinetic 1:1 fit
[2] = target: Doc1-122–His6 (DocSTm toxin) (Salmonella typhimurium); assay: as above; remark: listed apart in the source
[3] = target: Doc1-122–His6 (DocSTm toxin) (Salmonella typhimurium); assay: as above; remark: listed apart in the source
[4] = target: Doc1-122–His6 (DocSTm toxin) (Salmonella typhimurium); assay: as above; remark: listed apart in the source
[5] = target: Doc toxin of Salmonella enterica serovar Typhimurium (DocSTm) (Salmonella enterica serovar Typhimurium); assay: SPR; DocSTm immobilised on a Series S NTA chip (150 nM, 200-400 RU); analytes in single-cycle kinetics, typically six concentrations, kinetic 1:1 fit; 22 °C; 10 mM HEPES, 500 mM NaCl, 50 μM EDTA, 0.005% TWEEN 20, pH 8.0
[6] = target: Doc1-122–His6 (DocSTm toxin) (Salmonella typhimurium); assay: SPR; Biacore S200; Doc-His6 captured on a Series S NTA chip (200-400 RU); peptide as analyte, single-cycle kinetics, six concentrations (3-fold dilutions), 30 uL/min; 22 C; 10 mM HEPES, 500 mM NaCl, 50 uM EDTA, 0.005% TWEEN 20, pH 8.0; kinetic 1:1 fit; remark: listed apart in the source
[7] = target: Doc1-122–His6 (DocSTm toxin) (Salmonella typhimurium); assay: SPR; Biacore S200; Doc-His6 captured on NTA chip; peptide as analyte, multi-cycle experiments up to 500 nM; 22 C; 10 mM HEPES, 500 mM NaCl, 50 uM EDTA, 0.005% TWEEN 20, pH 8.0; steady-state 1:1 fit
[8] = target: Doc1-122–His6 (DocSTm toxin) (Salmonella typhimurium); assay: as above; remark: listed apart in the source
[9] = target: Doc1-122–His6 (DocSTm toxin) (Salmonella typhimurium); assay: SPR; Biacore S200; Doc-His6 captured on a Series S NTA chip (200-400 RU); peptide as analyte, single-cycle kinetics, six concentrations (3-fold dilutions), 30 uL/min; 22 C; 10 mM HEPES, 500 mM NaCl, 50 uM EDTA, 0.005% TWEEN 20, pH 8.0; kinetic 1:1 fit; remark: listed apart in the source
[10] = target: Doc1-122–His6 (DocSTm toxin) (Salmonella typhimurium); assay: as above; remark: listed apart in the source
[11] = target: Doc1-122–His6 (DocSTm toxin) (Salmonella typhimurium); assay: as above; remark: listed apart in the source
[12] = target: Doc1-122–His6 (DocSTm toxin) (Salmonella typhimurium); assay: as above; remark: listed apart in the source
[13] = target: Doc1-122–His6 (DocSTm toxin) (Salmonella typhimurium); assay: as above; remark: listed apart in the source
[14] = target: Doc1-122–His6 (DocSTm toxin) (Salmonella typhimurium); assay: as above; remark: listed apart in the source
[15] = target: Doc1-122–His6 (DocSTm toxin) (Salmonella typhimurium); assay: as above; remark: listed apart in the source
[16] = target: Doc1-122–His6 (DocSTm toxin) (Salmonella typhimurium); assay: as above; remark: listed apart in the source
[17] = target: Doc1-122–His6 (DocSTm toxin) (Salmonella typhimurium); assay: as above; remark: listed apart in the source
[18] = target: Doc toxin of Salmonella enterica serovar Typhimurium (DocSTm) (Salmonella enterica serovar Typhimurium); assay: SPR; DocSTm immobilised on a Series S NTA chip; analytes in multicycle kinetics, kinetic and/or steady-state 1:1 fit (steady-state for peptide 14); 22 °C; 10 mM HEPES, 500 mM NaCl, 50 μM EDTA, 0.005% TWEEN 20, pH 8.0
Doc = target: T1, Doc (Salmonella Typhimurium); assay: SPR
T1 chain: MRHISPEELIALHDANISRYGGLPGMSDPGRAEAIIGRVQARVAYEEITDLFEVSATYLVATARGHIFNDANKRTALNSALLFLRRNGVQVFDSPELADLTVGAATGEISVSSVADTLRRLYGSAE

[19] = target: Doc toxin of Salmonella enterica serovar Typhimurium (DocSTm) (Salmonella enterica serovar Typhimurium, UniProt A0A1C9CWN5 1-126); assay: SPR; DocSTm immobilised on a Series S NTA chip (150 nM, 200-400 RU); analytes in single-cycle kinetics, typically six concentrations, kinetic 1:1 fit; 22 °C; 10 mM HEPES, 500 mM NaCl, 50 μM EDTA, 0.005% TWEEN 20, pH 8.0; details: both partners purified

## peptide 9 (PhdSTm52-73-V62A)
[1]
  Kd: 0.171 nM
  koff: 0.000388 s⁻¹
  kon: 2.27e+06 M⁻¹ s⁻¹
[2]
  Kd: 0.183 nM and 0.239 nM and 0.132 nM
  koff: 0.000329 s⁻¹ and 0.000394 s⁻¹ and 0.000442 s⁻¹
  kon: 1.8e+06 M⁻¹ s⁻¹ and 1.65e+06 M⁻¹ s⁻¹ and 3.35e+06 M⁻¹ s⁻¹

## peptide 5 (PhdSTm52-73-E55A)
[3]
  Kd: 0.0489 nM and 0.0513 nM and 0.0469 nM
  koff: 7.11e-05 s⁻¹ and 7.49e-05 s⁻¹ and 8.02e-05 s⁻¹
  kon: 1.5e+06 1/(M s) (2×) and 1.7e+06 1/(M s)
[1]
  Kd: 0.049 nM
  koff: 7.5e-05 s⁻¹
  kon: 1.54e+06 M⁻¹ s⁻¹

## peptide 2 (PhdSTm52-73-M52A)
[4]
  Kd: 0.0523 nM and 0.0478 nM and 0.0551 nM
  koff: 5.44e-05 s⁻¹ and 5.13e-05 s⁻¹ and 7.14e-05 s⁻¹
  kon: 1.04e+06 M⁻¹ s⁻¹ and 1.07e+06 M⁻¹ s⁻¹ and 1.3e+06 M⁻¹ s⁻¹
[1]
  Kd: 0.052 nM
  koff: 5.9e-05 s⁻¹
  kon: 1.14e+06 M⁻¹ s⁻¹

## peptide 22 (Phd 55-71)
[5]
  Kd: 0.347 nM

## peptide 8 (PhdSTm52-73-M60A)
[1]
  Kd: 0.553 nM
  koff: 0.00122 s⁻¹
  kon: 2.22e+06 M⁻¹ s⁻¹
[6]
  Kd: 0.67 nM and 0.611 nM and 0.485 nM
  koff: 0.000966 s⁻¹ and 0.00091 s⁻¹ and 0.00181 s⁻¹
  kon: 1.44e+06 M⁻¹ s⁻¹ and 1.49e+06 M⁻¹ s⁻¹ and 3.73e+06 M⁻¹ s⁻¹

## peptide 10 (PhdSTm52-73-H63A)
[7]
  Kd: 12.2 nM and 13.1 nM and 40 nM
[8]
  Kd: 21.8 nM

## peptide 13 (PhdSTm52-73-E66A)
[1]
  Kd: 0.042 nM
  koff: 0.000112 s⁻¹
  kon: 2.7e+06 M⁻¹ s⁻¹
[9]
  Kd: 0.0475 nM and 0.0451 nM and 0.0352 nM
  koff: 7.15e-05 s⁻¹ and 0.000147 s⁻¹ and 0.000118 s⁻¹
  kon: 1.5e+06 M⁻¹ s⁻¹ and 3.26e+06 M⁻¹ s⁻¹ and 3.35e+06 M⁻¹ s⁻¹

## peptide 16 (PhdSTm52-73-E69A)
[10]
  Kd: 0.0687 nM and 0.0703 nM and 0.0518 nM
  koff: 0.000151 s⁻¹ and 0.000169 s⁻¹ and 8.97e-05 s⁻¹
  kon: 2.2e+06 M⁻¹ s⁻¹ and 2.37e+06 M⁻¹ s⁻¹ and 1.73e+06 M⁻¹ s⁻¹
[1]
  Kd: 0.065 nM
  koff: 0.000136 s⁻¹
  kon: 2.1e+06 M⁻¹ s⁻¹

## peptide 18 (PhdSTm52-73-D72A)
[1]
  Kd: 0.033 nM
  koff: 8.4e-05 s⁻¹
  kon: 2.51e+06 M⁻¹ s⁻¹
[11]
  Kd: 0.0532 nM and 0.0189 nM and 0.0385 nM
  koff: 7.43e-05 s⁻¹ and 5.67e-05 s⁻¹ and 0.00012 s⁻¹
  kon: 1.4e+06 M⁻¹ s⁻¹ and 3.01e+06 M⁻¹ s⁻¹ and 3.12e+06 M⁻¹ s⁻¹

## peptide 14 (PhdSTm52-73-L67A)
[7]
  Kd: 25 nM and 23.9 nM and 15.4 nM
[8]
  Kd: 21.4 nM

## peptide 17 (PhdSTm52-73-L70A)
[12]
  Kd: 2.1 nM and 1.98 nM and 1.02 nM
  koff: 0.00602 s⁻¹ and 0.00634 s⁻¹ and 0.00554 s⁻¹
  kon: 2.87e+06 M⁻¹ s⁻¹ and 3.2e+06 M⁻¹ s⁻¹ and 5.44e+06 M⁻¹ s⁻¹
[1]
  koff: 0.00597 s⁻¹
  kon: 3.84e+06 M⁻¹ s⁻¹

## peptide 11 (PhdSTm52-73-G64A)
[1]
  Kd: 0.084 nM
  koff: 0.000197 s⁻¹
  kon: 2.35e+06 M⁻¹ s⁻¹
[13]
  Kd: 0.13 nM and 0.0743 nM and 0.0769 nM
  koff: 1.42e-05 s⁻¹ and 2.28e-05 s⁻¹ and 2.23e-05 s⁻¹
  kon: 1.08e+06 M⁻¹ s⁻¹ and 3.07e+06 M⁻¹ s⁻¹ and 2.9e+06 M⁻¹ s⁻¹

## peptide 20 (PhdSTm52-71)
[1]
  Kd: 0.428 nM
  koff: 0.000393 s⁻¹
  kon: 917000 M⁻¹ s⁻¹
[14]
  Kd: 0.447 nM and 0.414 nM and 0.424 nM
  koff: 0.000413 s⁻¹ and 0.000387 s⁻¹ and 0.000378 s⁻¹
  kon: 925000 M⁻¹ s⁻¹ and 934000 M⁻¹ s⁻¹ and 891000 M⁻¹ s⁻¹

## peptide 7 (PhdSTm52-73-I59A)
[7]
  Kd: 25.4 nM and 19.4 nM and 15.1 nM
[8]
  Kd: 19.9 nM

## peptide 6 (PhdSTm52-73-F56A)
[1]
  koff: 0.000843 s⁻¹
  kon: 989000 M⁻¹ s⁻¹
[15]
  Kd: 1 nM and 0.919 nM and 0.745 nM
  koff: 0.000717 s⁻¹ and 0.000702 s⁻¹ and 0.00111 s⁻¹
  kon: 714000 M⁻¹ s⁻¹ and 764000 M⁻¹ s⁻¹ and 1.49e+06 M⁻¹ s⁻¹

## peptide 23 (Phd 56-70)
[5]
  Kd: 1.98 nM

## peptide 3 (PhdSTm52-73-D53A)
[1]
  koff: 6.5e-05 s⁻¹
  kon: 5.07e+06 M⁻¹ s⁻¹
[16]
  Kd: 0.0121 nM and 0.0166 nM and 0.00992 nM
  koff: 6.65e-05 s⁻¹ and 8.25e-05 s⁻¹ and 4.72e-05 s⁻¹
  kon: 5.48e+06 M⁻¹ s⁻¹ and 4.98e+06 M⁻¹ s⁻¹ and 4.76e+06 M⁻¹ s⁻¹

## peptide 15 (PhdSTm52-73-R68A)
[1]
  Kd: 0.115 nM
  koff: 0.000185 s⁻¹
  kon: 1.6e+06 M⁻¹ s⁻¹
[17]
  Kd: 0.124 nM and 0.106 nM and 0.112 nM
  koff: 0.000244 s⁻¹ and 0.000166 s⁻¹ and 0.000144 s⁻¹
  kon: 1.95e+06 M⁻¹ s⁻¹ and 1.57e+06 M⁻¹ s⁻¹ and 1.29e+06 M⁻¹ s⁻¹

B1: peptide 14 (Phd 52-73 L67A) (peptide)
peptide: Ac-WMDDEFAAIMAVHGNEARELADK
[18]
  Kd: 20 nM

B2: Phd peptide 22 55-71 (peptide)
chain: EFASLFDTLDSTNKELV
Doc
  Kd: 0.347 nM

B3: Phd peptide 1 neutralization domain (peptide)
chain: AALDAEFASLFDTLDSTNKELVNR
Doc
  Kd: 0.073 nM

B4: Phd peptide 23 56-70 (peptide)
chain: FASLFDTLDSTNKEL
Doc
  Kd: 1.98 nM

B5: peptide 21 (N-terminally truncated analogue of peptide 1) (peptide)
chain: Ac-EFAAIMAVHGNELRELADK-OH
[19]
  fold loss in Kd against peptide 1: ~5 fold

B6: peptide 20 (C-terminally truncated analogue of peptide 1) (peptide)
chain: Ac-WMDDEFAAIMAVHGNELRELA-OH
[19]
  fold loss in Kd against peptide 1: ~5 fold

B7: peptide 7 (Phd 52-73 I59A) (peptide)
peptide: Ac-WMDDEFAAAMAVHGNELRELADK
[18]
  Kd: 20 nM

B8: peptide 10 (Phd 52-73 H63A) (peptide)
peptide: Ac-WMDDEFAAIMAVAGNELRELADK
[18]
  Kd: 20 nM
